# According to US20260201033A1 (LTZ THERAPEUTICS, published 2026):
# Read-outs that look alike come from different tables or passages of the source.
# T1: Human C-type lectin domain family 5 member A (CLEC5A), endogenous on human monocytes and M0 macrophages (human, UniProt Q9NY25 1-188)
# T1 construct: Endogenous CLEC5A on primary human monocytes and monocyte-derived M0 macrophages; also called MDL-1; M0 macrophages (CLEC5A+) cells
# T1 sequence: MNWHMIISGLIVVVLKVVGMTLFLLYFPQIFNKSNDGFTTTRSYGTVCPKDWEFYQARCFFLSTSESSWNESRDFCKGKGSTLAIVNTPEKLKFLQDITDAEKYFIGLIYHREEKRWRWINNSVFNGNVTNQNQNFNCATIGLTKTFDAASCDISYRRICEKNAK
# T2: CD79b on Ramos cells and on endogenous B cells of human PBMCs (human, UniProt P40259 29-229)
# T2 sequence (looked up): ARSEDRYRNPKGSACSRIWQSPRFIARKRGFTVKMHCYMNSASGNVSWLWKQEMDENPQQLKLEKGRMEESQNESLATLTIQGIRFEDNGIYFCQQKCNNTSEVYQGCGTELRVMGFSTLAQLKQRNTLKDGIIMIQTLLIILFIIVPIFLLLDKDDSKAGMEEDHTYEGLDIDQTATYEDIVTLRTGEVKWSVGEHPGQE
# T3: EpCAM on DLD-1 cells (human, UniProt P16422 24-314)
# T3 sequence (looked up): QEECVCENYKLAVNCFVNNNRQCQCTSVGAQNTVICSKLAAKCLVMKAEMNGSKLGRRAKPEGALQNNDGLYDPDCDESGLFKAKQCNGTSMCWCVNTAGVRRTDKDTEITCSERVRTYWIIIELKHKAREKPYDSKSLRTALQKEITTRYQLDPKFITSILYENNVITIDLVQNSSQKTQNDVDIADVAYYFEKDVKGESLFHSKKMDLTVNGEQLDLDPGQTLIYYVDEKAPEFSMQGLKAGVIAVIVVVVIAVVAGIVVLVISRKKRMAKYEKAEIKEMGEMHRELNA
# T4: Human CLEC5A His Tag protein (ACROBiosystems, Cat #: CLA-H5243) (human, UniProt Q9NY25 28-188, limits assumed)
# T4 construct: Bought protein with a His tag; also called recombinant human CLEC5A protein
# T4 sequence: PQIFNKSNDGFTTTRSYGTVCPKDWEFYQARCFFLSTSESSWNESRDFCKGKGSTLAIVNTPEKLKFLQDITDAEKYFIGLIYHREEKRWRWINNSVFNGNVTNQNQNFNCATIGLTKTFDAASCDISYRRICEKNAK
# B1: Necitumumab (antibody, V domains shown)
# VH: QVQLQESGPGLVKPSQTLSLTCTVSGGSISSGDYYWSWIRQPPGKGLEWIGYIYYSGSTDYNPSLKSRVTMSVDTSKNQFSLKVNSVTAADTAVYYCARVSIFGVGTFDYWGQGTLVTVSS
# VL: EIVMTQSPATLSLSPGERATLSCRASQSVSSYLAWYQQKPGQAPRLLIYDASNRATGIPARFSGSGSGTDFTLTISSLEPEDFAVYYCHQYGSTPLTFGGGTKAEIK
# B2: HER2/5C7 (1+1 A) Fc-silenced (bispecific antibody, human IgG1, kappa, L234A L235A)
# heavy 1: not shown
# heavy 2: not shown
# light 1: not shown
# light 2: AIVMTQTPSSKSVPVGDTVTINCQASESVDRNNRLAWFQQKPGQPPKLLIYTTSTLASGVPSRFKGSGSGTHFTLTISDVVPDDAATYYCAGYRGAHTDGDAFGGGTEVVVKSSASTKGPSVFPLAPSSKSTSGGTAALGCLVKDYFPEPVTVSWNSGALTSGVHTFPAVLQSSGLYSLSSVVTVPSSSLGTQTYICNVNHKPSNTKVDKKVEPKSC
# notes: also called HER2/5C7 (1+1 A) Fc-LALAPG
# B3: CD79b/5C7 (2+2 B) Fc-optimized (bispecific antibody, human IgG1, kappa)
# heavy: EQQLVETGGGLIQPGGSLRLSCAASGFTINIDYWISWVRQAPGKGLEWIGIIDPGDGTTYFAIWVSGRFTISFDNSKNTVYLQMNSLRAEDTAVYFCVREFSASAYQYDLWGPGTLVTVSSASTKGPSVFPLAPSSKSTSGGTAALGCLVKDYFPEPVTVSWNSGALTSGVHTFPAVLQSSGLYSLSSVVTVPSSSLGTQTYICNVNHKPSNTKVDKKVEPKSCDKTHTCPPCPAPELLAGPSVFLFPPKPKDTLMISRTPEVTCVVVDVSHEDPEVKFNWYVDGVEVHNAKTKPREEQYNSTYRVVSVLTVLHQDWLNGKEYKCKVSNKALPLPEEKTISKAKGQPREPQVYTLPPSRDELTKNQVSLTCLVKGFYPSDIAVEWESNGQPENNYKTTPPVLDSDGSFFLYSKLTVDKSRWQQGNVFSCSVMHEALHNHYTQKSLSLSPGGGGGSGGGGSGGGGSDIQMTQSPSSLSASVGDRVTITCQASESVDRNNRLAWFQQKPGKPPKLLIYTTSTLASGVPSRFSGSGSGTDFTLTISSLQPEDVATYYCAGYRGAHTDGDAFGCGTKVEIKGGGGSGGGGSGGGGSGGGGSEQQLVESGGGLVKPGGSLRLSCAASGFSFSRSSYMCWVRQAPGKCLEWIGCLSVGDGHTYYASWAKGRFTISKDSAKNSVYLQMNSLRAEDTAVYFCARAPSYSGDGGHGYDLWGPGTLVTVSS
# light: ELVMTQSPATLSVSPGERATLSCRASEDIENYLAWYQQKPGQPPRLLIYRASTLSSGVPARFSGSGSGTEFTLTISSLQSEDFAVYYCQQGYRNSNVDNPFGGGTKVEIKRTVAAPSVFIFPPSDEQLKSGTASVVCLLNNFYPREAKVQWKVDNALQSGNSQESVTEQDSKDSTYSLSSTLTLSKADYEKHKVYACEVTHQGLSSPVTKSFNRGEC
# B4: anti-EpCAM antibody (Solitomab EpCAM binding part IgG form) (antibody, V domains shown)
# VH: QVQLQQSGAELVRPGTSVKVSCKASGYAFTNYLIEWVKQRPGQGLEWIGVINPGSGGTNYNEKFKGKATLTADKSSSTAYMQLSSLTSDDSAVYFCARDGPWFAYWGQGTLVTVSA
# VL: NIVMTQSPKSMSMSVGERVTLTCKASENVVTYVSWYQQKPEQSPKLLIYGASNRYTGVPDRFTGSGSATDFTLTISSVQAEDLADYHCGQGYSYPYTFGGGTKLEIK
# notes: IgG form
# B5: HER2/3A7 (1+1 A) Fc-silenced (bispecific antibody, human IgG1, kappa, L234A L235A)
# heavy 1: not shown
# heavy 2: not shown
# light 1: not shown
# light 2: AVVMTQTPASVEAAVGGTVTINCQASQRINNYLSWFQQKPGQPPKLLIYGAATLASGVPSRFKGSGSGTEYTLTISDLEPADAATYYCQCTYGIPSSNYGFGGGTEVVVKSSASTKGPSVFPLAPSSKSTSGGTAALGCLVKDYFPEPVTVSWNSGALTSGVHTFPAVLQSSGLYSLSSVVTVPSSSLGTQTYICNVNHKPSNTKVDKKVEPKSC
# notes: also called HER2/3A7 (1+1 A) Fc-LALAPG
# B6: EpCAM/5C7 (2+2 A) Fc-optimized (bispecific antibody, human IgG1, kappa)
# heavy: QVQLQQSGAELVRPGTSVKVSCKASGYAFTNYLIEWVKQRPGQGLEWIGVINPGSGGTNYNEKFKGKATLTADKSSSTAYMQLSSLTSDDSAVYFCARDGPWFAYWGQGTLVTVSAASTKGPSVFPLAPSSKSTSGGTAALGCLVKDYFPEPVTVSWNSGALTSGVHTFPAVLQSSGLYSLSSVVTVPSSSLGTQTYICNVNHKPSNTKVDKKVEPKSCDKTHTCPPCPAPELLAGPSVFLFPPKPKDTLMISRTPEVTCVVVDVSHEDPEVKFNWYVDGVEVHNAKTKPREEQYNSTYRVVSVLTVLHQDWLNGKEYKCKVSNKALPLPEEKTISKAKGQPREPQVYTLPPSRDELTKNQVSLTCLVKGFYPSDIAVEWESNGQPENNYKTTPPVLDSDGSFFLYSKLTVDKSRWQQGNVFSCSVMHEALHNHYTQKSLSLSPGK
# light: NIVMTQSPKSMSMSVGERVTLTCKASENVVTYVSWYQQKPEQSPKLLIYGASNRYTGVPDRFTGSGSATDFTLTISSVQAEDLADYHCGQGYSYPYTFGGGTKLEIKRTVAAPSVFIFPPSDEQLKSGTASVVCLLNNFYPREAKVQWKVDNALQSGNSQESVTEQDSKDSTYSLSSTLTLSKADYEKHKVYACEVTHQGLSSPVTKSFNRGECGGGGSGGGGSGGGGSAIVMTQTPSSKSVPVGDTVTINCQASESVDRNNRLAWFQQKPGQPPKLLIYTTSTLASGVPSRFKGSGSGTHFTLTISDVVPDDAATYYCAGYRGAHTDGDAFGCGTEVVVKGGGGSGGGGSGGGGSGGGGSQSLEESGGDLVKPGASLTLTCTASGFSFSRSSYMCWVRQAPGKCLEWIGCLSVGDGHTYYASWAKGRFTISKTSSTSVTLQMTRLTAADTATYFCARAPSYSGDGGHGYDLWGPGTLVTVSS
# notes: also called EpCAM/CLEC5A (2+2 A) Fc-optimized antibody; EpCAM/CLEC5A bispecific antibody
# How the values were obtained:
# [1] = target: T5, human EGFR (ACROBiosystems, Cat #: EGR-H5222) (human, UniProt P00533 25-645); assay: ELISA, plate coated with human EGFR
# T5 construct: Bought protein; also called recombinant human EGFR protein
# HER2 on SK-BR-3 cells [2] = target: T6, HER2 on SK-BR-3 cells (UniProt P04626 23-1255, limits assumed); assay: cell-based or functional assay
# HER2 on SK-BR-3 cells [3] = target: T6, HER2 on SK-BR-3 cells; assay: cell-based or functional assay; remark: listed apart in the source
# [4] = target: T1, Human C-type lectin domain family 5 …; assay: flow cytometry on human M0 macrophages, anti-human IgG PE
# [5] = target: T2, CD79b on Ramos cells and on endogenous …; assay: cell-based or functional assay
# [6] = target: T2, CD79b on Ramos cells and on endogenous …; assay: cell-based or functional assay; remark: listed apart in the source
# [7] = target: T2, CD79b on Ramos cells and on endogenous …; assay: cell-based or functional assay; remark: listed apart in the source
# [8] = target: T2, CD79b on Ramos cells and on endogenous …; assay: cell-based or functional assay; remark: listed apart in the source
# [9] = target: T2, CD79b on Ramos cells and on endogenous …; assay: cell-based or functional assay; remark: listed apart in the source
# [10] = target: T2, CD79b on Ramos cells and on endogenous …; assay: cell-based or functional assay; remark: listed apart in the source
# [11] = target: T2, CD79b on Ramos cells and on endogenous …; assay: flow cytometry on Ramos cells (CD79b+), anti-human IgG PE, MFI (PE)
# EpCAM on DLD-1 cells [12] = target: T3, EpCAM on DLD-1 cells; assay: cell-based or functional assay
# EpCAM on DLD-1 cells [13] = target: T3, EpCAM on DLD-1 cells; assay: flow cytometry on DLD-1 cells (EPCAM+), anti-human IgG PE
# [14] = target: T4, Human CLEC5A His Tag protein …; assay: ELISA, plate coated with human CLEC5A
# [15] = target: T1, Human C-type lectin domain family 5 …; assay: flow cytometry on human M0 macrophages, anti-human IgG PE; remark: listed apart in the source
binder,measurement,setting,value
B1,EC50,[1],0.022 µg/mL
B2,"IC50 (nM), SK-BR-3 cell killing by M0 macrophages (E:T 5:1)",HER2 on SK-BR-3 cells [2],0.148 nM
same,"IC50 (nM), SK-BR-3 cell killing by M0 macrophages in the presence of hIgG1",HER2 on SK-BR-3 cells [3],0.00632 nM
same,"IC50 (nM), SK-BR-3 cell killing by M0 macrophages in the presence of media",HER2 on SK-BR-3 cells [3],0.0481 nM
same,"IC50 (nM), SK-BR-3 cell killing by M0 macrophages in the presence of plasma",HER2 on SK-BR-3 cells [3],0.433 nM
same,EC50,[4],1.49 nM
B3,"IC50 (nM), Ramos cell killing by PBMCs (test 2), Donor 234",[5],0.0298 nM
same,"IC50 (nM), Ramos cell killing by PBMCs (test 2), Donor 431",[5],0.0168 nM
same,"IC50 (nM), Ramos cell killing by PBMCs (test 3), Donor 281",[6],0.28 nM
same,"IC50 (nM), Ramos cell killing by PBMCs (test 3), Donor 367",[6],0.0295 nM
same,"IC50 (nM), killing of endogenous B cells by PBMCs, Donor 234",[7],0.0156 nM
same,"IC50 (nM), Ramos cell killing by M0 macrophages, Donor 022",[8],0.012 nM
same,"IC50 (nM), Ramos cell killing by M0 macrophages, Donor 159",[8],0.001 nM
same,"IC50 (nM), Ramos cell killing by M0 macrophages, Donor 161",[8],0.001 nM
same,"IC50 (nM), Ramos cell killing by M0 macrophages, Donor 431",[8],0.002 nM
same,"IC50 (nM), Ramos cell killing by M1 macrophages, Donor 431",[9],0.002 nM
same,"IC50 (nM), Ramos cell killing by M2 macrophages, Donor 022",[10],0.006 nM
same,"IC50 (nM), Ramos cell killing by M2 macrophages, Donor 431",[10],0.001 nM
same,EC50 (read off the curve),[11],~1 nM
B4,"IC50 (nM), DLD-1 cell killing by M0 macrophages",EpCAM on DLD-1 cells [12],0.0812 nM
same,EC50,EpCAM on DLD-1 cells [13],0.67 nM
B5,"IC50 (nM), SK-BR-3 cell killing by M0 macrophages (E:T 5:1)",HER2 on SK-BR-3 cells [2],0.114 nM
same,EC50,[4],0.611 nM
B6,"IC50 (nM), DLD-1 cell killing by M0 macrophages",EpCAM on DLD-1 cells [12],0.0035 nM
same,EC50,[14],0.064 µg/mL
same,EC50,[15],7.35 nM
same,EC50,EpCAM on DLD-1 cells [13],1.1 nM
